Earlier results as cited in patent US12090208B2, “Peptide drug improvement using vitamin B12 and Haptocorrin binding substrate conjugates” (SYRACUSE UNIVERSITY, priority 2017, dated 2024).

Settings: in vivo

B1: haptocorrin: serum B12 binding and transport protein (protein, UniProt P20061 24-433, looked up)
Transcobalamin-1: EICEVSEENYIRLKPLLNTMIQSNYNRGTSAVNVVLSLKLVGIQIQTLMQKMIQQIKYNVKSRLSDVSSGELALIILALGVCRNAEENLIYDYHLIDKLENKFQAEIENMEAHNGTPLTNYYQLSLDVLALCLFNGNYSTAEVVNHFTPENKNYYFGSQFSVDTGAMAVLALTCVKKSLINGQIKADEGSLKNISIYTKSLVEKILSEKKENGLIGNTFSTGEAMQALFVSSDYYNENDWNCQQTLNTVLTEISQGAFSNPNAAAQVLPALMGKTFLDINKDSSCVSASGNFNISADEPITVTPPDSQSYISVNYSVRINETYFTNVTVLNGSVFLSVMEKAQKMNDTIFGFTMEERSWGPYITCIQGLCANNNDRTYWELLSGGEPLSQGAGSYVVRNGENLEVRWSKY
  half-life in blood: approximately 10 hours
